Four molecules from article PMC2939071, “The Crystal Structure of Toxoplasma gondii Pyruvate Kinase 1” (PLoS ONE, 2010) can be followed below.

As a reminder, the stoichiometry N is a count of units in the complex or per binding partner. What is called Km is the substrate concentration at which the rate is half of its maximum. What is called Vmax is the top rate of the reaction or transport when substrate is in excess.

Data set [1] has as its target T1, TgPK1 (T. gondii pyruvate kinase 1), full length (Toxoplasma gondii, UniProt Q969A2).
T1 construct: gene pk; full length Met1-Glu531, N-terminal His6 tag and TEV site, tag kept; synthetic gene, expressed in E. coli; homotetramer
T1 sequence (Q969A2 1-531): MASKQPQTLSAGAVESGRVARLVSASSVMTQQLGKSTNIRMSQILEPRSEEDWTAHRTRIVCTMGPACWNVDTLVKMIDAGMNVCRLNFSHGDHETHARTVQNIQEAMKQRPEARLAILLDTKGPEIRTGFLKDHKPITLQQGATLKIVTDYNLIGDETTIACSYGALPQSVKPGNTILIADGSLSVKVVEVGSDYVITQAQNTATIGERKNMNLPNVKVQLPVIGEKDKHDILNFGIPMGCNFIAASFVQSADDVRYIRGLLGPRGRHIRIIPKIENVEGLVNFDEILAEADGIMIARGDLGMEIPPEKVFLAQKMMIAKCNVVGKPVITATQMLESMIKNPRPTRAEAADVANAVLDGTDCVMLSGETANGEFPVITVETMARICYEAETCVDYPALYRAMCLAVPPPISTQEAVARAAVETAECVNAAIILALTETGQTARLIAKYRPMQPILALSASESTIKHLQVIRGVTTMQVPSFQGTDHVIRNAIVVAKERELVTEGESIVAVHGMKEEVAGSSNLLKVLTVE
Nature of the data set: lactate dehydrogenase-coupled NADH assay, Hill fit. The data set is classed as biochemical. To be noted: allosteric activator; 1 mM effector, PEP varied 0.01 to 10 mM, 2 mM ADP, 50 mM KCl, 20 mM MgCl2, pH 7.5.

The target of data set [2] is Toxoplasma gondii pyruvate kinase 1, N-terminally truncated (Ile39 to Glu531) (Toxoplasma gondii). The data set can be described thus: SEC; Superdex 200 26/60 in 10 mM HEPES pH 7.5, 500 mM NaCl; oligomeric state from the elution volume (164 mL full length, 168 mL truncated); profile not shown. (In gel filtration, larger molecules generally elute earlier.)
The target is the same in data set [3]. Nature of the data set: crystal structure; truncated TgPK1 crystallised with K+ and Mg2+; 15% PEG3350, 100 mM succinic acid pH 7.0; the asymmetric unit is a tetramer.
Data set [4] deals with Toxoplasma gondii pyruvate kinase 1, full length (Met1 to Glu531) (Toxoplasma gondii) (UniProt Q27006). The data set can be described thus: SEC; Superdex 200 26/60 in 10 mM HEPES pH 7.5, 500 mM NaCl; oligomeric state from the elution volume (164 mL full length, 168 mL truncated); profile not shown.
Data set [5] has the same target. The data set can be described thus: crystal structure; full TgPK1 crystallised without substrates, effectors or added ions; 19% PEG3350, 100 mM BisTris pH 6.0, 200 mM NH4I; the asymmetric unit is a tetramer.
Substrate in data set [6]: C=C(OP(=O)(O)O)C(=O)O
Nature of the data set: lactate dehydrogenase-coupled NADH assay, Hill fit. Particulars: no sugar effector, cooperative (Hill), 2 mM ADP, 50 mM KCl, 20 mM MgCl2, 50 mM HEPES pH 7.5, room temperature. The data set is classed as biochemical, Toxoplasma gondii. An excerpt:
lactate dehydrogenase-coupled NADH assay, Hill fit on TgPK1 (T. gondii pyruvate kinase 1), full length

As for `O=P(O)(O)OC[C@H]1OC(O)[C@H](O)[C@@H](O)[C@@H]1O` (stereo partly shown) [G6P, glucose-6-phosphate], the “lactate dehydrogenase-coupled NADH assay, Hill fit” value in data set [1] was “G6P showed a classic allosteric activation with a six-fold reduction in the apparent Km”.

As to “Toxoplasma gondii pyruvate kinase 1, N-terminally truncated (Ile39 to Glu531) (domain or fragment)”, the stoichiometry N in data set [2] and in data set [3] was 4 throughout.

Turning to “Toxoplasma gondii pyruvate kinase 1, full length (Met1 to Glu531) (from UniProt Q27006 1-509) (enzyme)”, the stoichiometry N in data set [4] and in data set [5] was 4 each time.

B1: TgPK1 (T. gondii pyruvate kinase 1), full length (Toxoplasma gondii) (protein)
chain: T1 sequence (Q969A2 1-531)
notes: full length Met1-Glu531, N-terminal His6 tag and TEV site, tag kept; synthetic gene, expressed in E. coli; homotetramer
For the molecule B1, in data set [6], the Km stood at 750 ± 51 µM and the Vmax is 42 µM/min.
